In PMC10437922, “DNAJB3 attenuates ER stress through direct interaction with AKT” (PLOS ONE, 2023):

Target: T1, His-AKT1 (human, UniProt P31749 1-480)
T1 construct: 'human' stands only before DNAJB3; also called pH6K-AKT1; source: E. coli BL21 (DE3), purified (Ni-NTA, gel filtration Superdex 200)
Assay: ITC; DNAJB3 (250 uM, syringe) titrated into 20 uM protein in the cell; 25°C; 25 mM Tris-HCl pH 8.0, 150 mM NaCl, 1 mM DTT; one-site binding model
Details: both partners purified

T1 sequence (P31749 whole entry): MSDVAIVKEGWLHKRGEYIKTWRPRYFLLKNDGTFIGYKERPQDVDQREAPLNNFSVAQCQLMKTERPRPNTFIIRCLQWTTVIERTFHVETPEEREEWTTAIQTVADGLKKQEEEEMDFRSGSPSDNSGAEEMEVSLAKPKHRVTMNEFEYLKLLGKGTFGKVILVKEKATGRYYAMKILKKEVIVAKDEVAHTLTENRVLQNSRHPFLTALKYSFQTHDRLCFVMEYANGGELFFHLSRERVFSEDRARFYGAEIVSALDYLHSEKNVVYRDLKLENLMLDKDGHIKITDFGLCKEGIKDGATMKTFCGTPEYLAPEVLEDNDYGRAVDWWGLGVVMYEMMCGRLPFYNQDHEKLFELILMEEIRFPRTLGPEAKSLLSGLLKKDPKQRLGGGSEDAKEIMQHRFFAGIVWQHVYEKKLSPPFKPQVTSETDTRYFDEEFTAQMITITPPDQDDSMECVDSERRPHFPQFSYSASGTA

Kd: ~62 µM | stoichiometry N: 0.84
B1: His-DNAJB3 (natural protein)
chain: not shown
notes: 6xHIS residues'; also called hDNAJB3; pH6K-DNAJB3; source: E. coli BL21 (DE3), purified (Ni-NTA, gel filtration Superdex 200)
